Molecular target: SARS-CoV-2 2P S ectodomain trimer (SARS-CoV-2 (YP_009724390), UniProt P0DTC2, stabilised)
Experiment: BLI

B1: B6 monoclonal antibody (recombinant IgG with human constant regions) (antibody, V domains shown)
VH: EVQLQQSGPVLVKPGASVRMSCKASGYTITDYYLNWVKQSHGKSLEWLGVLNPYSGGSLYSQTFKGKATLTVDRSSSTAYLELNSLTSEDSAVYYCARQLGRGNGLDYWGQGTSVTVSS
VL: NIMMTQSPSSLAVSAGEKVTMSCKSSQSVLHSSDQKNYLAWYQQKPGQSPKLLIYWASTRESGVPDRFTGSGSGTDFTLTISSVQAEDLAVYFCHQYLSSYTFGGGTKLEIK
- binding result: binds

Source: publication PMC7781312 (bioRxiv, 2021)
